T1: MSL1 (untagged, subunit of the DCCcore) (Drosophila melanogaster, UniProt P50535 1-1039)
T1 sequence: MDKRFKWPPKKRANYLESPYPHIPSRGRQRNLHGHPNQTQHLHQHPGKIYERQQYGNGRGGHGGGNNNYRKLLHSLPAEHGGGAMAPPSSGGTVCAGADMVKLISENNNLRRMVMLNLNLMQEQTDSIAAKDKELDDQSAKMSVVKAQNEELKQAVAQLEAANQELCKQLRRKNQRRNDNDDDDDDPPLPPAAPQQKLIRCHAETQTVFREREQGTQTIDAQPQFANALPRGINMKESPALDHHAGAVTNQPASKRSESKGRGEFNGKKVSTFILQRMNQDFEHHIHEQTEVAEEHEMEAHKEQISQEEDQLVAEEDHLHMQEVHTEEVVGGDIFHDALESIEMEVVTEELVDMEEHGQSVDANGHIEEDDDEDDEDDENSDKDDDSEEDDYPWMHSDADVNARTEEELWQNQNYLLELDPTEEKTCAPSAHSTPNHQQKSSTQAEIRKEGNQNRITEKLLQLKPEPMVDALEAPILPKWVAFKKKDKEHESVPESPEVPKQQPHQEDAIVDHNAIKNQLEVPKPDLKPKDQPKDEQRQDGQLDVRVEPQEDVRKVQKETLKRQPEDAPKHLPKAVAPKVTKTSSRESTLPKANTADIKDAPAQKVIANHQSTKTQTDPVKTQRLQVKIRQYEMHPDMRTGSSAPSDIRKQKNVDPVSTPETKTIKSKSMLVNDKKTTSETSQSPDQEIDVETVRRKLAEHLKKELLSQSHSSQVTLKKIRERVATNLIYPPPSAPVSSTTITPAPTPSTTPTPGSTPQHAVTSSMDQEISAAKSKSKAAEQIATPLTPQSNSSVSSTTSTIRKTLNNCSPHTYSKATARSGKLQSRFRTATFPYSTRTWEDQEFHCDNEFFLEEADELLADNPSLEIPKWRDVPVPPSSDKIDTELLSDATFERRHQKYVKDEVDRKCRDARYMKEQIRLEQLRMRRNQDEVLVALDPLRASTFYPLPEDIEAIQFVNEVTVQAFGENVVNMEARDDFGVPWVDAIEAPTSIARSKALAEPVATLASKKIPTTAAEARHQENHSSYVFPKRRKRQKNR

B1: DCC DNA-binding module (MSL2-FLAG and MSL1 Δ865-1039) (complex)
chain 1: MAQTAYLKVTRIAMRSASNLSKRRVEELNSGLGELRQLLSCVVCCQLLVDPYSPKGKRCQHNVCRLCLRGKKHLFPSCTQCEGCSDFKTYEENRMMAAQLLCYKTLCVHLLHSALFGELAGMRPQVARELVPRIKLPPKTTQEFIREGSNISDTFDIFLPQPDLPFLKDMPTSLPAETPPTSAVTTPELPYDHHLNISDIEAEAAATAEQGHFSPLPLLPTGSRMGMLSHAGQIVIATESSESGFMDQAWTDQVDLSGTVSVSKYTNSGNNFAVSYVMPTSATTKFDPQELQIGQVVQMADSTQLAVLAAVEETVETSTQLTVLSTTVEETVETSTQLEVLTSAEEPNEISDQLANLQVEESDEALVEETVEEAEGTSIPSEVVAEHMEEDQHLDVHTSQSPTQTEMEEAVEEHVATKTQLGHVQTELQDAESLQKDFEDAKAAAEEAKEKEKDLHAISAELQKEDSDEPTLKRKRTRTLKASQAAKIEPVPSEVKTKVQSGKGALRRIRGKDKEEKVKPPKPKCRCGISGSSNTLTTCRNSRCPCYKSYNSCAGCHCVCCKNPHKEDYVESDEDDDLEDFEMPKDVPEPMTQSEEPVVAEPRQEENSMAPPDSSAPISLVPLNNLQQSQHPLVLVQNEKGEYQGFNIFQGSKPLDPVTVGFTIRVQLQHTDGFGSLPQYAYIMPTIDPPNPPAPSLSPPPPPAPDREVIEPPAKKFRTSRTRRGRANFSALDTVDELVSGGSRSNSAAGDRSSATDNAHSLFEEIMSGSDDL
chain 2: MDKRFKWPPKKRANYLESPYPHIPSRGRQRNLHGHPNQTQHLHQHPGKIYERQQYGNGRGGHGGGNNNYRKLLHSLPAEHGGGAMAPPSSGGTVCAGADMVKLISENNNLRRMVMLNLNLMQEQTDSIAAKDKELDDQSAKMSVVKAQNEELKQAVAQLEAANQELCKQLRRKNQRRNDNDDDDDDPPLPPAAPQQKLIRCHAETQTVFREREQGTQTIDAQPQFANALPRGINMKESPALDHHAGAVTNQPASKRSESKGRGEFNGKKVSTFILQRMNQDFEHHIHEQTEVAEEHEMEAHKEQISQEEDQLVAEEDHLHMQEVHTEEVVGGDIFHDALESIEMEVVTEELVDMEEHGQSVDANGHIEEDDDEDDEDDENSDKDDDSEEDDYPWMHSDADVNARTEEELWQNQNYLLELDPTEEKTCAPSAHSTPNHQQKSSTQAEIRKEGNQNRITEKLLQLKPEPMVDALEAPILPKWVAFKKKDKEHESVPESPEVPKQQPHQEDAIVDHNAIKNQLEVPKPDLKPKDQPKDEQRQDGQLDVRVEPQEDVRKVQKETLKRQPEDAPKHLPKAVAPKVTKTSSRESTLPKANTADIKDAPAQKVIANHQSTKTQTDPVKTQRLQVKIRQYEMHPDMRTGSSAPSDIRKQKNVDPVSTPETKTIKSKSMLVNDKKTTSETSQSPDQEIDVETVRRKLAEHLKKELLSQSHSSQVTLKKIRERVATNLIYPPPSAPVSSTTITPAPTPSTTPTPGSTPQHAVTSSMDQEISAAKSKSKAAEQIATPLTPQSNSSVSSTTSTIRKTLNNCSPHTYSKATARSGKLQSRFRTATFPYSTRTWEDQEFHCDNEFFLEEADELLADNP
B2: MSL3 with an N-terminal hexahistidine tag (natural protein)
chain: MTELRDETPLFHKGEIVLCYEPDKSKARVLYTSKVLNVFERRNEHGLRFYEYKIHFQGWRPSYDRCVRATVLLKDTEENRQLQRELAEAAKLQIRGDYSYKGTPDKPSAKKKRGGKAAHVEEPIVVPMDTGHLEAEHEMAPTPRAAGNRTRDNSGGKRKEKPPSGDGRLKGNRGRQTETFYNNAINDVSVYNHVPQEDRIMMRVSERLRELIEYDRNMIKVLGKQHALPARVPIVTIMENFVKQQAVELAISIKQDSSRARNTQSRNARMEREYDRVMSTVCMLKEVVDGLRIYFEFHVDDHLLYTEEKEYVHNYLTDDNMRNCSLILNKSYEYINPSGDTELIGLDGTPVVEGSGDTNGQIGVINIGGPEYEKQLQKCLLYIVTASGKNTAQAYERTSPYTAAYKLPVEMRGFLNETFKWRLLSAESPPEKSMVFGAPHLVRLMIKMPMFLNASPISNKKLEDLLPHLDAFINYLENHREWFDRENFVNSTALPQEDLQRELLDSLDGIAA

Assays:
[1] = molecular target: MLE-FLAG (maleless DExH helicase, wild-type) (Drosophila melanogaster, UniProt P24785 1-1293); test: co-IP
[2] = molecular target: T1, MSL1 (untagged, subunit of the DCCcore); test: co-IP

Binder | binding result [1] | binding result [2]
B1 | binds | –
B2 | – | binds
